Measurements from PMC13066552 (Nature Communications, 2026).

What was measured:
[1] = biological target: Bpa 31-146 (Mycobacterium tuberculosis) (UniProt P9WKX3); test: NMR titration
native MS = biological target: the molecule itself; test: native MS
[2] = biological target: the molecule itself; test: methyl-TROSY NMR spectra compared

## DNA-binding domain of human Telomeric Repeat-binding Factor 1 (residues 378-430) (domain or fragment)
[1]
  Kd: 1500 nM

B1: Mycobacterium tuberculosis bacterial proteasome activator Bpa, full-length wild type (natural protein)
chain: MVIGLSTGSDDDDVEVIGGVDPRLIAVQENDSDESSLTDLVEQPAKVMRIGTMIKQLLEEVRAAPLDEASRNRLRDIHATSIRELEDGLAPELREELDRLTLPFNEDAVPSDAELRIAQAQLVGWLEGLFHGIQTALFAQQMAARAQLQQMRQGALPPGVGKSGQHGHGTGQYL
Native MS
  stoichiometry N: 2 subunits

B2: Bpa 31-146 (domain or fragment)
chain: DSDESSLTDLVEQPAKVMRIGTMIKQLLEEVRAAPLDEASRNRLRDIHATSIRELEDGLAPELREELDRLTLPFNEDAVPSDAELRIAQAQLVGWLEGLFHGIQTALFAQQMAARA
[2]
  stoichiometry N: 12 subunits
